Experimental data taken from article PMC11216086, “The structure of TRAF7 coiled-coil trimer provides insight into its function in zebrafish embryonic development” (Journal of Molecular Cell Biology, 2024).
Changes are numbered by the printed parent chain.

B1: human TRAF7 CC (270–379 aa) F337S (domain or fragment, UniProt Q6Q0C0 270-379, looked up)
chain: GNQDTYETHLETCRFEGLKEFLQQTDDRFHEMHVALAQKDQEIAFLRSMLGKLSEKIDQLEKSLELKSDVLDENQSKLSEDLMEFRRDASMLNDELSHINARLNMGILGS
notes: source: E. coli BL21 (DE3), purified (nickel-NTA, Superdex 200 size-exclusion chromatography)
B2: human TRAF7 CC (270–379 aa) I368S (domain or fragment, UniProt Q6Q0C0 270-379, looked up)
chain: B1 chain with S68F, I99S
notes: as for B1
B3: human TRAF7 CC (fragment 270–379 aa) (domain or fragment, UniProt Q6Q0C0 270-379, looked up)
chain: B1 chain with S68F
notes: Cloned in pET32M3C; tags 'were cleaved by HRV 3C protease when needed'; also called TRAF7 CC region; TRAF7 coiled-coil domain; source: E. coli BL21 (DE3), purified (nickel-NTA, Superdex 200 size-exclusion chromatography)
B4: human TRAF7 ZF-CC (fragment 221–379 aa) (domain or fragment, UniProt Q6Q0C0 221-379, looked up)
chain: DHEGSCDYRPVRCPNNPSCPPLLRMNLEAHLKECEHIKCPHSKYGCTFIGNQDTYETHLETCRFEGLKEFLQQTDDRFHEMHVALAQKDQEIAFLRSMLGKLSEKIDQLEKSLELKFDVLDENQSKLSEDLMEFRRDASMLNDELSHINARLNMGILGS
notes: as for B1
B5: human TRAF7 CC (270–379 aa) K346E (domain or fragment, UniProt Q6Q0C0 270-379, looked up)
chain: B1 chain with S68F, K77E
notes: Variant found in patients with developmental disorders; source: E. coli BL21 (DE3), purified (nickel-NTA, Superdex 200 size-exclusion chromatography)
B6: human TRAF7 CC (270–379 aa) R371G (domain or fragment, UniProt Q6Q0C0 270-379, looked up)
chain: B1 chain with S68F, R102G
notes: as for B5
B7: human TRAF7 CC (270–379 aa) Q310L (domain or fragment, UniProt Q6Q0C0 270-379, looked up)
chain: B1 chain with Q41L, S68F
notes: as for B1

Target: the molecule itself
Experiment: SEC-MALS; Superdex 200 gel filtration in 50 mM Tris pH 8.0, 100 mM NaCl, 10 mM EDTA, 1 mM DTT; three-angle light scattering (mini-DAWN TRISTAR) and refractive index detector; self-association (trimer)

| Protein | binding result | stoichiometry N |
| --- | --- | --- |
| B1 | binds |  |
| B2 | binds |  |
| B3 |  | 3 |
| B4 |  | 3 |
| B5 | binds |  |
| B6 | binds |  |
| B7 | binds |  |
